# US6608174B1, “Radiolabeled vasoactive intestinal peptide analogs for diagnosis and radiotherapy” (Dabur Research Foundation, priority 2000, dated 2003)
# Square brackets hold non-standard residues; d marks the D form. Peptide text beside a SMILES is read from it. * marks the point of attachment. DTPA = O=C(O)CN(CCN(CC(=O)O)CC(=O)O)CCN(CC(=O)O)CC(=O)*; dPhe(4-Cl) = N[C@H](Cc1ccc(Cl)cc1)C(=O)O; Aib = CC(C)(N)C(=O)O; Ahx = NCCCCCC(=O)O
# Test system: human adenocarcinoma tumor
# Design: species or system NIH nu/nu nude mice
# Conditions: mouse, in vivo, iv
# From the text: Tc-99m labeled peptide (SEQ ID NO: 10) was used to image tumors induced subcutaneously in the abdomen of NIH nu/nu nude mice. Following intravenous administration in human adenocarcinoma tumor bearing nude mice, images were taken at different time intervals post […], using a conventional gamma camera. […] The results are shown in FIG. 1 which clearly depicts that the accumulation of Tc-99m labeled VIP analog is high in tumor (indicated with arrow) as compared to the accumulation in viscera (unmarked dots) after 3 hours of injection.
structure (smiles),measurement,value
"CC[C@H](C)[C@H](NC(=O)[C@H](CO)NC(=O)[C@H](CC(N)=O)NC(=O)[C@H](CC(C)C)NC(=O)[C@H](Cc1ccc(O)cc1)NC(=O)[C@H](CCCCN)NC(=O)[C@H](CCCCN)NC(=O)[C@@H](NC(=O)[C@H](C)NC(=O)[C@H](CC(C)C)NC(=O)[C@H](CCC(N)=O)NC(=O)[C@H](CCCCN)NC(=O)[C@H](CCCNC(=N)N)NC(=O)[C@H](CC(C)C)NC(=O)[C@H](CCCNC(=N)N)NC(=O)[C@@H](NC(=O)[C@H](Cc1ccc(O)cc1)NC(=O)[C@H](CC(N)=O)NC(=O)[C@H](CC(=O)O)NC(=O)[C@@H](NC(=O)[C@@H](Cc1ccc(Cl)cc1)NC(=O)[C@@H](NC(=O)C(C)(C)NC(=O)[C@H](CC(=O)O)NC(=O)[C@H](CO)NC(=O)[C@H](Cc1c[nH]cn1)NC(=O)CCCCCNC(=O)CN(CCN(CCN(CC(=O)O)CC(=O)O)CC(=O)O)CC(=O)O)C(C)C)[C@@H](C)O)[C@@H](C)O)C(C)C)C(=O)N[C@@H](CC(C)C)C(=O)N[C@@H](CC(N)=O)C(N)=O [Tc-99m labeled peptide (SEQ ID NO: 10), metal not drawn] ({DTPA-Ahx}-HSD[Aib]V[dPhe(4-Cl)]TDNYTRLRKQLAVKKYLNSILN-NH2)",accumulation in liver and kidney,little accumulation in liver and kidney
same,blood clearance,rapid blood clearance
